The target in this test is MS2-Biotin, biotinylated single-chain MS2 coat protein dimer with an AviTag in a surface loop of the second monomer (bacteriophage MS2). Nature of the test: SEC.

In turn, “streptavidin (from UniProt P22629 25-183) (natural protein)” returned a stoichiometry N (streptavidin molecules per VLP) of 72.

Values taken from publication PMC8134492.
